# Measured values from paper PMC5881884 (Biochimica et biophysica acta, 2017).
# B1: 14-3-3ζ pseudo-WT (C25A, C189A) (natural protein)
# chain: MDKNELVQKAKLAEQAERYDDMAAAMKSVTEQGAELSNEERNLLSVAYKNVVGARRSSWRVVSSIEQKTEGAEKKQQMAREYREKIETELRDICNDVLSLLEKFLIPNASQAESKVFYLKMKGDYYRYLAEVAAGDDKKGIVDQSQQAYQEAFEISKKEMQPTHPIRLGLALNFSVFYYEILNSPEKAASLAKTAFDEAIAELDTLSEESYKDSTLIMQLLRDNLTLWTSDTQGDEAEAGEGGEN
# Target: the molecule itself
# Assay: native gel or EMSA
protein,measurement,value
B1,stoichiometry N,2
